This is an account of results in patent US20020114797, “Composition and methods for modulating the length of telomeres” (Telogene Inc., published 2002).

In series [1] the target is T1, GST-UP1 (hnRNP A1 proteolytic fragment UP1) (UniProt P49312 P49312:1-196). Put plainly: pulldown; background level recovery; 165 mM NaCl washes; also tested by gel shift (FIG. 3 lane 9). The conditions noted are these: tags: N-terminal GST fusion (inferred); label: 32P. Here is the method:
(§1) Following 5×1 ml washes in buffer containing 165 mM NaCl, the recovery of the labelled oligos was measured. The (TTAGGG)₃ oligonucleotide was recovered with the highest yield. A control experiment with plain beads yielded less that 10% of bound (TTAGGG)₃ oligonucleotide. A labelled DNA oligonucleotide containing the complementary sequence (CCCTAA)₃ was recovered at background level. […] UP1 associated directly with telomeric repeats carrying the TTAGGG sequence. Gel-shift assays performed with mutated oligonucleotides indicate that UP1 binds specifically to (TTAGGG)₃ oligonucleotide.
(§2) ³²P-labelled DNA oligonucleotides were mixed with Glutathione Sepharose 4B beads containing or lacking the GST-UP1 fusion protein. Following 5×1 ml washes in buffer containing 165 mM NaCl, the recovery of the labelled oligos was measured. The (TTAGGG)₃ oligonucleotide was recovered with the highest yield. A control experiment with plain beads yielded less that 10% of bound (TTAGGG)₃ oligonucleotide. A labelled DNA oligonucleotide containing the complementary sequence (CCCTAA)₃ was recovered at background level. […] Thus, UP1 can associate directly with telomeric repeats carrying the TTAGGG sequence. Furthermore, gel-shift assays performed with mutated oligonucleotides indicate that UP1 binds specifically to (TTAGGG)₃ oligonucleotide. […] It remains to be shown whether UP1 associates with telomeric repeats in vivo.
In general terms: A gel shift assay detects complexes by their altered migration in electrophoresis.

In series [2] the target is T1, GST-UP1 (hnRNP A1 proteolytic fragment …). Description: pulldown; glutathione Sepharose beads, washes at 165 mM NaCl; highest recovery; plain beads less than 10% of bound. As to conditions: tags: N-terminal GST fusion (inferred); label: 32P. As to the method:
as §1, §2

T1 sequence (P49312 1-196, one chain of several): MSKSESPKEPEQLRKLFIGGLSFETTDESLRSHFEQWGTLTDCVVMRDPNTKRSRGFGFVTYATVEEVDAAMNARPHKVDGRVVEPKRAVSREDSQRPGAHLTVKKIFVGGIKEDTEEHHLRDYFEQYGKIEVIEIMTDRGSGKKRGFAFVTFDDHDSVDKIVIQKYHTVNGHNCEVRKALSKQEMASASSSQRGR

As to CCCTAACCCTAACCCTAA (ssDNA) [complementary C-strand (CCCTAA)3], the binding result in series [1] is recorded as “no binding”.

On to TTAGGGTTAGGGTTAGGG (ssDNA) [vertebrate telomeric (TTAGGG)3], for which the binding result in series [2] is given as “binds”.
